Assays:
BlsM = target: T1, BlsM (Streptomyces griseochromogenes, UniProt Q841K1); experiment: HPLC of released 5hmC, Michaelis-Menten fit; type: biochemical; details: 50 mM Tris-HCl, pH 7.2, 37 °C, 30 min
T1 construct: N-terminal 6xHis tag (pET28a), E. coli BL21(DE3)
From the text: HPLC of released 5hmC, Michaelis-Menten fit on BlsM

[1] = substrate: Nc1nc(=O)n([C@@H]2O[C@H](COP(=O)(O)O)[C@@H](O)[C@H]2O)cc1CO; experiment: HPLC of released 5hmC, Michaelis-Menten fit; type: biochemical, Streptomyces rimofaciens; details: 50 mM Tris-HCl, pH 7.2, 37 °C, 30 min
From the text: HPLC of released 5hmC, Michaelis-Menten fit on MilB

[2] = target: the molecule itself; experiment: SEC; size exclusion chromatography of MilB in solution (Figure S1); conditions of this run not given
[3] = substrate: Nc1ccn([C@@H]2O[C@H](COP(=O)(O)O)[C@@H](O)[C@H]2O)c(=O)n1; experiment: HPLC of released cytosine, Michaelis-Menten fit; type: biochemical, Streptomyces rimofaciens; details: 50 mM Tris-HCl, pH 7.2, 37 °C, 30 min
From the text: HPLC of released cytosine, Michaelis-Menten fit on MilB

T1 sequence (Q841K1 entry or part of it): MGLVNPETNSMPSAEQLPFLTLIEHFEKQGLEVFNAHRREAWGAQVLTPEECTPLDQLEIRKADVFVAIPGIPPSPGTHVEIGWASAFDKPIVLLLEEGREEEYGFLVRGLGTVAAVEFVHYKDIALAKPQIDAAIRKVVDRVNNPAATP

| Km (BlsM) [µM] | Molecule | Km [1] | kcat [1] [s⁻¹] | kcat/Km [1] [M⁻¹ s⁻¹] | stoichiometry N [2] | Km [3] | kcat [3] [s⁻¹] | kcat/Km [3] [M⁻¹ s⁻¹] |
| --- | --- | --- | --- | --- | --- | --- | --- | --- |
| 328 | Nc1nc(=O)n([C@@H]2O[C@H](COP(=O)(O)O)[C@@H](O)[C@H]2O)cc1CO [hmCMP, 5-hydroxymethyl cytidine 5′-monophosphate] |  |  |  |  |  |  |  |
|  | N-glycosidase MilB, wild type (enzyme, Streptomyces remofaciens ZJU5119, UniProt B4Y381 1-170, looked up, MilB, N-glycosidase (CMP/hydroxymethyl CMP hydrolase) of the mildiomycin biosynthesis pathway, Streptomyces remofaciens ZJU5119; the full-length protein consists of 170 residues; residues 12-169 are seen in the crystal model; Cloned into pET28a with an N-terminal 6xHis tag; also called WT MilB; full-length MilB; source: E. coli BL21(DE3), purified (Ni-NTA, Superdex200 gel filtration)) MTTTPKPRTAPAVGSVFLGGPFRQLVDPRTGVMSSGDQNVFSRLIEHFESRGTTVYNAHRREAWGAEFLSPAEATRLDHDEIKAADVFVAFPGVPASPGTHVEIGWASGMGKPMVLLLERDEDYAFLVTGLESQANVEILRFSGTEEIVERLDGAVARVLGRAGEPTVIG | 71.55 (11.66) μM | 0.0531 | 743 | 2 |  |  |  |
|  | MilB (Streptomyces rimofaciens; R23M) (protein, full-length (170 residues), N-terminal 6xHis tag (pET28a), E. coli BL21(DE3); dimer; crystal model residues 12-169 / 12-170) MTTTPKPRTAPAVGSVFLGGPFMQLVDPRTGVMSSGDQNVFSRLIEHFESRGTTVYNAHRREAWGAEFLSPAEATRLDHDEIKAADVFVAFPGVPASPGTHVEIGWASGMGKPMVLLLERDEDYAFLVTGLESQANVEILRFSGTEEIVERLDGAVARVLGRAGEPTVIG | 86.63 (10.67) μM | 0.0156 | 180 |  | 1122.00 (100) μM | 0.0305 | 27.1 |

From PMC4081090, “Structure of the N-glycosidase MilB in complex with hydroxymethyl CMP reveals its Arg23 specifically recognizes the substrate and controls its entry” (Nucleic Acids Research, 2014)
